Measured values taken from patent US20240343823A1 (Ablynx, published 2024).

Biological target: T1, human GPC3 on tumor cell lines (HepG2, Huh-7, NCI-H661, MKN-45, NCI-H23, BxPC-3, NCI-H292) (human, UniProt P51654 25-554)
T1 construct: Endogenous GPC3 of human cancer cell lines; also called GPC3 on HepG2; GPC3 on Huh-7
Experiment: flow cytometry on Huh-7 cells

B1: A022600424 (other)
chain: DVQLVESGGGVVQPGGSLRLSCVASGYVHKINFYGWYRQAPGKEREKVAHISIGDQTDYADSAKGRFTISRDESKNTVYLQMNSLRPEDTAAYYCRALSRIWPYDYWGQGTLVTVSSGGGGSEVQLVESGGGVVQPGGSLRLSCAASGFTFSSFAMTWVRRPPGKGLEWVATITNKGVTSYADSVKGRFTISRDNAKNTLYLQMNSLRPEDTALYICANARRTGPRAPTDIGSYRGQGTLVTVSSGGGGSGGGSEVQLVESGGGVVQPGGSLRLSCAASGSIFRSVFSSSTMEWYRQAPGKKRELVARIAPGEGTYYGALYADSVKGRFTISRDNAKNTVYLQMNSLRPEDTALYYCASGVAWGQGTLVTVSSGGGGSGGGSEVQLVESGGGVVQPGGSLRLSCAASGFTFRSFGMSWVRQAPGKGPEWVSSISGSGSDTLYADSVKGRFTISRDNSKNTLYLQMNSLRPEDTALYYCTIGGSLSRSSQGTLVTVSSA
notes: Trispecific tetravalent ISVD (VHH) T-cell engager: anti-TCR, two anti-GPC3 (biparatopic), anti-albumin; also called TCE01-5GS-A022600351-9GS-A022600314-9GS-ALB23002-A
EC50: 1.25 nM
